Source: patent publication US20170044515
Substitutions are numbered along the chain they refer to.

What was measured:
kB1-NHV = molecular target: T1, kB1-NHV (not fully specified)
T1 chain: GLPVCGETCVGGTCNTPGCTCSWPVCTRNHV

[1] = molecular target: T2, Apelin substrate (H. sapiens)
T2 chain: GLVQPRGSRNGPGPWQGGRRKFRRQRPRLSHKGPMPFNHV

EV-9 = molecular target: T3, EV-9
T3 chain: EINSTEINHV

GV-10 = molecular target: T4, GV-10
T4 chain: GLPPPIFNHV

[2] = molecular target: T5, Galanin substrate (H. sapiens)
T5 chain: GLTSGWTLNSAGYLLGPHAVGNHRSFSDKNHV

HV-10 = molecular target: T6, HV-10
T6 chain: HLPPPIFNHV

Histatin-1a = molecular target: T7, Histatin-1a
T7 chain: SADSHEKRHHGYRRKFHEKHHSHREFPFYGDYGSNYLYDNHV

Histatin-1b = molecular target: T8, Histatin-1b
T8 chain: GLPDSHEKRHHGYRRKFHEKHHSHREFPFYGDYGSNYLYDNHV

Histatin-3a = molecular target: T9, Histatin-3a
T9 chain: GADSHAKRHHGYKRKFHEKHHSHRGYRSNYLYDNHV

Histatin-3b = molecular target: T10, Histatin-3b
T10 chain: T9 chain with A2L

[3] = molecular target: T11, Neuromedin U substrate (H. sapiens)
T11 chain: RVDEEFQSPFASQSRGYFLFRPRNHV

RV-10 = molecular target: T12, RV-10
T12 chain: RVTRPVNHV

[4] = molecular target: T13, Rat neuromedin U substrate
T13 chain: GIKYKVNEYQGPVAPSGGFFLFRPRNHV

SA-kB1-NHV = molecular target: T14, SA-kB1-NHV
T14 chain: T1 chain

SFTI-DHV = molecular target: T15, SFTI-DHV
T15 chain: GRCTKSIPPICFPDHV

SFTI-NHV = molecular target: T16, SFTI-NHV
T16 chain: GRCTKSIPPICFPNHV

SV-10 = molecular target: T17, SV-10
T17 chain: SLPPPIFNHV

[5] = molecular target: T18, Salusin substrate (H. sapiens)
T18 chain: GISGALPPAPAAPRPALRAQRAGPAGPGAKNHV

Thanatin analog = molecular target: T19, Thanatin analog
T19 chain: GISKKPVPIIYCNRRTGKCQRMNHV

kB1-AHV = molecular target: T20, kB1-AHV (not fully specified)
T20 chain: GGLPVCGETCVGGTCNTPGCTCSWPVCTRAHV

kB1-DHV = molecular target: T21, kB1-DHV (not fully specified)
T21 chain: T20 chain with A30D

kB1-EHV = molecular target: T22, kB1-EHV (not fully specified)
T22 chain: T20 chain with A30E

kB1-N* = molecular target: T23, kB1-N* (not fully specified)
T23 chain: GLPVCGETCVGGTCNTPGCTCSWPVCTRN

kB1-NH = molecular target: T24, kB1-NH (not fully specified)
T24 chain: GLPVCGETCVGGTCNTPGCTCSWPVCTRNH

kB1-NHVIA = molecular target: T25, kB1-NHVIA (not fully specified)
T25 chain: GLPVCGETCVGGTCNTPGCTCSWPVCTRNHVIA

kB1-NHVI = molecular target: T26, kB1-NHVI (not fully specified)
T26 chain: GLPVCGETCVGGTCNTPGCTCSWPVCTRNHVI

kB1-QHV = molecular target: T27, kB1-QHV (not fully specified)
T27 chain: T20 chain with A30Q

[6] = molecular target: modified GFP ending with Asn-His-Val at the C-terminus and starting with Gly-Ile at the N-terminus

B1: Jack bean legumain (Takara Bio) (protein)
chain: EVGTRWAVLVAGSNGYGNYRHQADVCHAYQLLIKGGVKEENIVVFMYDDIAYNAMNPRPGVIINHPQGPDVYAGVPKDYTGEDVTPENLYAVILGDKSKVKGGSGKVINSNPEDRIFIFYSDHGGPGVLGMPNAPFVYAMDFIDVLKKKHASGGYKEMVIYIEACESGSIFEGIMPKDLNIYVTTASNAQENSFGTYCPGMNPPPPEEYVTCLGDLYSVSWMEDSETHNLKRETVQQQYQSVRKRTSNSNSYRFGSHVMQYGDTNITAEKLYLYHGFDPATVNFPPHNGNLEAKMEVVNQRDAELLFMWQMYQRSNHQPEKKTHILEQITETVKHRNHLDGSVELIGVLLYGPGKSSSVLHSVRAPGLPLVDDWTCLKSMVRVFETHCGSLTQYGMKHMRAFGNVCNSGVSKASMEEACKAACGGYDAGLLYPSNTGYSA
B1 was tested, and the “hydrolysis or cyclization of kB1-NHV (MS)” value (kB1-NHV) was “commercial jack bean legumain was unable to cyclize kB1-NHV and generated only the linear form of kB1”.

B2: butelase 1 (active enzyme purified from pods of Clitoria ternatea) (protein)
chain: VEGTRWAVLVAGSKGYVNYRHQADVCHAYQILKKGGLKDENIIVFMYDDIAYNESNPHPGVIINHPYGSDVYKGVPKDYVGEDINPPNFYAVLLANKSALTGTGSGKVLDSGPNDHVFIYYTDHGGAGVLGMPSKPYIAASDLNDVLKKKHASGTYKSIVFYVESCESGSMFDGLLPEDHNIYVMGASDTGESSWVTYCPLQHPSPPPEYDVCVGDLFSVAWLEDCDVHNLQTETFQQQYEVVKNKTIVALIEDGTHVVQYGDVGLSKQTLFVYMGTDPANDNNTFTDKNSLGTPRKAVSQRDADLIHYWEKYRRAPEGSSRKAEAKKQLREVMAHRMHIDN
B2 was tested, and the Km [1] was 6.7 µM, the “cyclization yield within 5 min” value [1] was “butelase 1 achieved >95% cyclization yields within 5 min for all peptides tested” and the kcat [1] was 5.78 s⁻¹. It also gave a kcat/Km [1] of 859000 M^-1 S^-1, a Yield (%) of dimerization and cyclization, products Cyclo([..]), [..] (EV-9) of 20% and a Yield (%) of dimerization and cyclization, product Cyclo([..])2 (GV-10) of 50%. For the same protein, the Km [2] was 34.2 µM, the “cyclization yield within 5 min” value [2] was “butelase 1 achieved >95% cyclization yields within 5 min for all peptides tested” and the kcat [2] was 3.54 s⁻¹. For the same protein, the kcat/Km [2] was 103000 M^-1 S^-1, the Yield (%) of dimerization and cyclization, product Cyclo([..])2 (HV-10) was 50% and the Yield (%) of cyclization (Histatin-1a) was 90%. For the same protein, the Yield (%) of cyclization (Histatin-1b) was 90%, the Yield (%) of cyclization (Histatin-3a) was 90% and the Yield (%) of cyclization (Histatin-3b) was 90%. For the same protein, the Km (MrIA conotoxin substrate) was 7.9 µM, the Yield (%) of cyclization (MrIA conotoxin substrate) was 95% and the kcat (MrIA conotoxin substrate) was 2.2 s⁻¹. The kcat/Km (MrIA conotoxin substrate) was 278000 M⁻¹ s⁻¹, the Km [3] was 8.7 µM and the “cyclization yield within 5 min” value [3] was “butelase 1 achieved >95% cyclization yields within 5 min for all peptides tested”. For the same protein, the kcat [3] was 5.78 s⁻¹, the kcat/Km [3] was 664000 M^-1 S^-1 and the Yield (%) of dimerization and cyclization, products Cyclo(RVTRPVN), Cyclo(RVTRPVN)2 (RV-10) was 20%. For the same protein, the Km [4] was 20.2 µM, the “cyclization yield within 5 min” value [4] was “butelase 1 achieved >95% cyclization yields within 5 min for all peptides tested” and the kcat [4] was 26.6 s⁻¹. The kcat/Km [4] was 1.31e+06 M^-1 S^-1, the Cyclization yield (%) at 0.2 h (SA-kB1-NHV) was over 95% and the Km (SA-kB1-NHV) was 31.5 µM. The “fold change of catalytic efficiency against kB1-NHV” value (SA-kB1-NHV) was “a 50-fold improvement in the catalytic efficiency of SA-kB1-NHV compared to kB1-NHV”, the kcat (SA-kB1-NHV) was 17.1 s⁻¹ and the kcat/Km (SA-kB1-NHV) was 542000 M⁻¹ s⁻¹. It also gave a Cyclization yield (%) at 4 h (SFTI-DHV) of under 10%, a Cyclization yield (%) at 0.8 h (SFTI-NHV) of over 95% and a Km (SFTI-NHV) of 51 µM. For the same protein, the “catalytic efficiency (kcat/Km)” value (SFTI-NHV) was “catalytic efficiency of 11,700 M^-1 s^-1”, the kcat (SFTI-NHV) was 0.6 s⁻¹ and the kcat/Km (SFTI-NHV) was 10700 M⁻¹ s⁻¹. For the same protein, the Yield (%) of dimerization and cyclization, product Cyclo([..])2 (SV-10) was 50%, the “cyclization yield within 5 min” value [5] was “butelase 1 achieved >95% cyclization yields within 5 min for all peptides tested” and the Yield (%) of cyclization (Thanatin analog) was 95%. The Cyclization yield (%) at 4 h (kB1-AHV) was under 1%, the “cyclization after 4 h (MS)” value (kB1-AHV) was “No cyclization of kB1-AHV, kB1-QHV or kB1-EHV was observed after incubating with butelase 1 for 4 h” and the Cyclization yield (%) at 4 h (kB1-DHV) was under 10%. For the same protein, the “cyclization rate against kB1-NHV” value (kB1-DHV) was “at about a hundred-fold slower than kB1-NHV”, the Cyclization yield (%) at 4 h (kB1-EHV) was under 1% and the “cyclization after 4 h (MS)” value (kB1-EHV) was “No cyclization of kB1-AHV, kB1-QHV or kB1-EHV was observed after incubating with butelase 1 for 4 h”. The Cyclization yield (%) at 4 h (kB1-N*) was under 10%, the Cyclization yield (%) at 4 h (kB1-NH) was under 5% and the Cyclization yield (%) at 0.8 h (kB1-NHV) was over 95%. The Km (kB1-NHV) was 213 µM, the “conversion into cyclic kB1 within 6 min (RP-HPLC)” value (kB1-NHV) was “converted about 40% of kB1-NHV into cyclic kB1 within 6 min” and the kcat (kB1-NHV) was 2.28 s⁻¹. The kcat/Km (kB1-NHV) was 10700 M⁻¹ s⁻¹, the Cyclization yield (%) at 3 h (kB1-NHVIA) was over 95% and the Km (kB1-NHVIA) was 129 µM. It also gave a kcat (kB1-NHVIA) of 0.38 s⁻¹, a kcat/Km (kB1-NHVIA) of 2970 M⁻¹ s⁻¹ and a Cyclization yield (%) at 2 h (kB1-NHVI) of over 95%. For the same protein, the Km (kB1-NHVI) was 62 µM, the kcat (kB1-NHVI) was 0.25 s⁻¹ and the kcat/Km (kB1-NHVI) was 4030 M⁻¹ s⁻¹. For the same protein, the Cyclization yield (%) at 4 h (kB1-QHV) was under 1%, the “cyclization after 4 h (MS)” value (kB1-QHV) was “No cyclization of kB1-AHV, kB1-QHV or kB1-EHV was observed after incubating with butelase 1 for 4 h” and the “cyclization yield within 15 min (SDS page, ESI-MS)” value [6] was “The cyclization reaction completed within 15 min with >90% yield”.
